# Test results published in US20050032146A1 (published 2005).
# T1: tsks fused to the GAL 4 activation domain (AD)
# T1 chain: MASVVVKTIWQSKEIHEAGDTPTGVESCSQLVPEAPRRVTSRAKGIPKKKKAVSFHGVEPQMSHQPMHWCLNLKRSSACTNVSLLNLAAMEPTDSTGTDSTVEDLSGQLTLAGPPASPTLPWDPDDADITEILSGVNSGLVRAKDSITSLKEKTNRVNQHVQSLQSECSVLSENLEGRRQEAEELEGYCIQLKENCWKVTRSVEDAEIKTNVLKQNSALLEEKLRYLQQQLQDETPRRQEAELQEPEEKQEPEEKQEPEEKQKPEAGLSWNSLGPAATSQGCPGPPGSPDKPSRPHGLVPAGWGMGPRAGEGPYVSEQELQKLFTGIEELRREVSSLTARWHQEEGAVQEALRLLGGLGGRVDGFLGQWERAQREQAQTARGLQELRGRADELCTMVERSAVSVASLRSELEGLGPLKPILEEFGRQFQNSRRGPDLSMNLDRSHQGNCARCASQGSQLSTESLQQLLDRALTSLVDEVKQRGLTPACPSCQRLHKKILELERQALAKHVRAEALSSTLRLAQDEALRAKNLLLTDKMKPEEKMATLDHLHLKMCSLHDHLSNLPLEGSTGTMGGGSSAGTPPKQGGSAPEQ
# Tests used:
# [1] = target: T1, tsks fused to the GAL 4 activation …
# [2] = target: T2, tssk 2 fused to the GAL4 DNA binding domain (DNA-BD) (human, UniProt P04386 1-147 (Saccharomyces cerevisiae entry), limits assumed); test: yeast two-hybrid, growth in His-free medium (AH109)
# T2 construct: Yeast two-hybrid bait expressed in the AH109 reporter strain; also called bait gene (tssk 2); fusion protein of tssk 2 with the DNA-BD
# Protocol: In this experiment, a bait gene (tssk 2) was first transformed into the reporter strain as a fusion to the GAL4 DNA binding domain (DNA-BD). A second plasmid that expressed tsks as fusion to the GAL 4 activation domain (AD) was also introduced into the AH109 reporter strain. Western blots were performed to confirm expression of fusion proteins in yeast. […] This interaction was used as a positive control. […] Neither GAL-AD alone nor the fusion proteins between GAL-AD and TSKS or GAL-AD and SV40 Large T antigen had the ability to activate transcription of the His gene.
binding result [2],Binder,transcription of the Histidine (HIS) gene; growth of yeast in His-free medium [1]
–,tssk 2 fused to the GAL4 DNA binding domain (DNA-BD) (protein) MKLLSSIEQACDICRLKKLKCSKEKPKCAKCLKNNWECRYSPKTKRSPLTRAHLTEVESRLERLEQLFLLIFPREDLDMILKMDSLQDIKALLTGLFVQDNVNKDAVTDRLASVETDMPLTLRQHRISATSSSEESSNKGQRQLTVSMDDATVLRKKGYIVGINLGKGSYAKVKSAYSERLKFNVAVKIIDRKKTPTDFVERFLPREMDILATVNHGSIIKTYEIFETSDGRIYIIMELGVQGDLLEFIKCQGALHEDVARKMFRQLSSAVKYCHDLDIVHRDLKCENLLLDKDFNIKLSDFGFSKRCLRDSNGRIILSKTFCGSAAYAAPEVLQSIPYQPKVYDIWSLGVILYIMVCGSMPYDDSDIRKMLRIQKEHRVDFPRSKNLTCECKDLIYRMLQPDVSQRLHIDEILSHSWLQPPKPKATSSASFKREGEGKYRAECKLDTKTGLRPDHRPDHKLGAKTQHRLLVVPENENRMEDRLAETSRAKDHHISGAEVGKAST,promote transcription of the Histidine (HIS) gene and allow for the growth of yeast in His-free medium
no binding,"GAL 4 activation domain alone (GAL-AD plasmid) (other, UniProt P04386 768-881, looked up, Negative-control prey without an insert; also called GAL-AD alone) ANFNQSGNIADSSLSFTFTNSSNGPNLITTQTNSQALSQPIASSNVHDNFMNNEITASKIDDGNNSKPLSPGWTDQTAYNAFGITTGMFNTTTMDDVYNYLFDDEDTPPNPKKE",–
